This note sets out measurements from patent US5670637.

Data set [1] has as its target HIV-1 reverse transcriptase p66/p51 heterodimer (Human immunodeficiency virus 1) (UniProt P04585+P04585). In words: filter. Conditions: half-maximal binding; 200 mM KOAc, 50 mM Tris-HCl pH 7.7, 10 mM DTT.
Data set [2] addresses T1, T4 DNA polymerase (gp43) (Bacteriophage T4) (UniProt P04415).
T1 sequence: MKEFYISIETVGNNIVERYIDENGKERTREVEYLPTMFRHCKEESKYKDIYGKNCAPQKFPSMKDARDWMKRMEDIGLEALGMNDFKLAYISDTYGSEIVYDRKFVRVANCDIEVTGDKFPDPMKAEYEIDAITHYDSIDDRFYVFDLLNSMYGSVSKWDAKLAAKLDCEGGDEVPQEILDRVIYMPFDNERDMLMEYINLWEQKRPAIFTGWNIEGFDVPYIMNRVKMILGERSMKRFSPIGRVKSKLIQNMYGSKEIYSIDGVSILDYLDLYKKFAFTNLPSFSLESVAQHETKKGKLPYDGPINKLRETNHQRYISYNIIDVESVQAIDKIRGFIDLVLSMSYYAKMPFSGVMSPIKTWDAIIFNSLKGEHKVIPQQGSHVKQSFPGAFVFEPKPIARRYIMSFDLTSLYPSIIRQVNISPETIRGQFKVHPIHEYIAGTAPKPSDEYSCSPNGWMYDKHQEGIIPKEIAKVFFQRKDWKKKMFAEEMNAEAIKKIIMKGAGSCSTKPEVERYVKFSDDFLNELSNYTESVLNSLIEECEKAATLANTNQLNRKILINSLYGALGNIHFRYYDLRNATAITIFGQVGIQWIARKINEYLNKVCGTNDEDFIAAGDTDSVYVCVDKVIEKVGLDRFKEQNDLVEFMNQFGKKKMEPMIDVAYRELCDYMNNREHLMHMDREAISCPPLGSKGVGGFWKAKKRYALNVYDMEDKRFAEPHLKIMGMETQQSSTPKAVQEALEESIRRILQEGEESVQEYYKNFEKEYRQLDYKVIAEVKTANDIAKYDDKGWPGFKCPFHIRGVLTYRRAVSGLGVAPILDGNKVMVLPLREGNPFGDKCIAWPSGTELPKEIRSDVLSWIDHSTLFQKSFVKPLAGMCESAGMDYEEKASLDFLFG
The data set is described as follows: filter. Conditions: random loop population, 50-fold lower affinity.

The target of data set [3] is human tissue plasminogen activator (htPA) (Homo sapiens) (UniProt P00750). In words: filter. Conditions: 150 mM NaAc, 50 mM Tris-acetate pH 7.5.
Data set [4] deals with T1, T4 DNA polymerase (gp43) (Bacteriophage T4). The data set is described as follows: FP. Conditions: filter binding; 200 mM KOAc, 50 mM Tris-HCl pH 7.7, 37 C.

Chain of human tissue plasminogen activator (htPA) (Homo sapiens) (P00750 36-562): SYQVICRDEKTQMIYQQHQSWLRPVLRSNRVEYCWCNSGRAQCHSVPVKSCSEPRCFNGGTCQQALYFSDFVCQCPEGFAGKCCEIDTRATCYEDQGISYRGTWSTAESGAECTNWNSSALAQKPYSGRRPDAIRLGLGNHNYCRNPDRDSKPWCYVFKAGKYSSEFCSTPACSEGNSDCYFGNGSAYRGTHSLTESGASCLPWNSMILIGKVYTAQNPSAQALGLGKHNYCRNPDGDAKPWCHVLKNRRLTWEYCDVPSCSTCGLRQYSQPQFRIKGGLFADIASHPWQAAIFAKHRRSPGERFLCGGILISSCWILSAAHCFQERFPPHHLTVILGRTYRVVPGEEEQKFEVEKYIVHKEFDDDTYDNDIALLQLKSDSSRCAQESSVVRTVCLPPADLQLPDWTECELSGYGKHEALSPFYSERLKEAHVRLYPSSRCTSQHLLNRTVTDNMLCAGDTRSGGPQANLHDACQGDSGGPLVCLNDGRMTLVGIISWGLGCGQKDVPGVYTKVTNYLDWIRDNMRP

“GGGAGCAUCAGACUUUUAAUCUGACAAUCAAGNNNNNNNNNNNNNNNNNNNNNNNNNNNNNNNNAUCUAUGAAAGAAUUUUAUAUCUCUAUUGAAAC” showed a K half in data set [1] of 700 nM.
Take “AUAUUCCUUAGUUUAUAGCCCNNNNNNNNAGGCUCUUGAUUG [gene 43 operator RNA random 8N loop pool]”: in data set [2], the Kd was 0.25 µM.
“GGGAGCUCAGAAUAAACGCUCAANNNNNNNNNNNNNNNNNNNNNNNNNNNNNNUUCGACAUGAGGCCCGGAUCCGGC [30N candidate pool]” had a Kd in data set [3] of 0.07 µM. In other words, the double-digit nanomolar range.
As to “AUAUUCCUUAGUUUAUAGCCCNNNNNNNNAGGCUCUUGAUUG [gp43 RNA wild-type loop AAUAACUC]”, the Kd in data set [4] was found to be 0.005 µM. In other words, the single-digit nanomolar range.

For orientation: Kd means the free concentration of one partner at which half of the binding sites on the other are occupied at equilibrium, for simple one-to-one binding.
